Measured values from patent US7402570.

Columns and labels:
[1] = molecular target: human p53 protein, full length (human) (UniProt P04637); assay: cell-based or functional assay
[2] = molecular target: lexA-p53 (p53 codons 1-73) fusion (human); assay: cell-based or functional assay

Sequence of human p53 protein, full length (human) (P04637 whole entry, the tested form may be a part): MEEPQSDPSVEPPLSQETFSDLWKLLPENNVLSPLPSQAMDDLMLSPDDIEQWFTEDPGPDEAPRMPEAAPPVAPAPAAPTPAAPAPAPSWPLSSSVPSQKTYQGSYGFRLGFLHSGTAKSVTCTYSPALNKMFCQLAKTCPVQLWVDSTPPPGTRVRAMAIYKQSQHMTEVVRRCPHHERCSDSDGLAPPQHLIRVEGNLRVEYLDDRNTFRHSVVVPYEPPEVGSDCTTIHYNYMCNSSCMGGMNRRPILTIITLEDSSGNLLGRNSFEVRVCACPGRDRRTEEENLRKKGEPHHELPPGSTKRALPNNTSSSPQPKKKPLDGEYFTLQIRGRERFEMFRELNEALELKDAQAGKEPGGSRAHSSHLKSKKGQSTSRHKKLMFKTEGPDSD

inhibition of p53-mediated transactivation of a p53-responsive β-galactosidase reporter in yeast [1]: 16 fold
decrease in lexA-responsive β-galactosidase reporter activity in yeast [2]: 5 fold
Substance: human MDM2 protein (hMDM2), full length
